This data set addresses T1, MBP-CahR (Pseudomonas putida KT2440) (UniProt Q88GQ3).
T1 sequence: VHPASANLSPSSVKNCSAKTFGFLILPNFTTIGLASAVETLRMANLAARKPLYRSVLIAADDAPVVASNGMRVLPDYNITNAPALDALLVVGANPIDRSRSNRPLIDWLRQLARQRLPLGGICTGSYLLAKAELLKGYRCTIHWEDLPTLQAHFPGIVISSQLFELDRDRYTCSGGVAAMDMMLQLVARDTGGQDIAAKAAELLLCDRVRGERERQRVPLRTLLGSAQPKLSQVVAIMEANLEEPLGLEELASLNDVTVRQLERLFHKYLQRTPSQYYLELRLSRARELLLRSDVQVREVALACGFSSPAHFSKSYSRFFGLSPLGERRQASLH
The experiment in a line: EMSA. To be noted: buffer, not given. On the technique in general: In EMSA bound probe runs differently from free probe, usually more slowly.

The values below come from article doi:10.1101/2021.11.02.466972.

Take “GTTTGTCCGAGACTTTGTGGCCGCCTGGCAGAAGGTCATGGAGCTGGACCGCTTTGATCTGAAATAGCGTTGCCTGGCGGGGGGGGCGCGCTCAGCGCCCCCTTGGCCAGTGGTTATCCCGCCAATTCCAGGTCGGATAGATACAAAAGTGTCCTCGTCGGTTCTGTTGCAATGCTTCTCAGGCGGCCGGCCTGAACAGCGTGCTCACAACGACAAGGAACCCCGACCATGCAAATGCCCAAGACC (double strand) [creA promoter probe]”: the binding entry is “binds”.
